{"source": "patent US11390894B2", "about": "“Biological processes for the production of aryl sulfates” (CysBio ApS, priority 2014, dated 2022)", "molecules": {"B1": {"name": "FjTAL: tyrosine ammonia-lyase from Flavobacterium johnsoniae (protein, listed as Flavobacterium johnsoniae)", "chain": "MNTINEYLSLEEFEAIIFGNQKVTISDVVVNRVNESFNFLKEFSGNKVIYGVNTGFGPMAQYRIKESDQIQLQYNLIRSHSSGTGKPLSPVCAKAAILARLNTLSLGNSGVHPSVINLMSELINKDITPLIFEHGGVGASGDLVQLSHLALVLIGEGEVFYKGERRPTPEVFEIEGLKPIQVEIREGLALINGTSVMTGIGVVNVYHAKKLLDWSLKSSCAINELVQAYDDHFSAELNQTKRHKGQQEIALKMRQNLSDSTLIRKREDHLYSGENTEEIFKEKVQEYYSLRCVPQILGPVLETINNVASILEDEFNSANDNPIIDVKNQHVYHGGNFHGDYISLEMDKLKIVITKLTMLAERQLNYLLNSKINELLPPFVNLGTLGFNFGMQGVQFTATSTTAESQMLSNPMYVHSIPNNNDNQDIVSMGTNSAVITSKVIENAFEVLAIEMITIVQAIDYLGQKDKISSVSKKWYDEIRNIIPTFKEDQVMYPFVQKVKDHLINN"}, "B2": {"name": "RcTAL: tyrosine ammonia-lyase from Rhodobacter capsulatus (protein, listed as Rhodobacter capsulatus)", "chain": "MLDATIGRKRMTLQSQTAKDCLALDGALTLVQCEAIATHRSRISVTPALRERCARAHARLEHAIAEQRHIYGITTGFGPLANRLIGADQGAELQQNLIYHLATGVGPKLSWAEARALMLARLNSILQGASGASPETIDRIVAVLNAGFAPEVPAQGTVGASGDLTPLAHMVLALQGRGRMIDPSGRVQEAGAVMDRLCGGPLTLAARDGLALVNGTSAMTAIAALTGVEAARAIDAALRHSAVLMEVLSGHAEAWHPAFAELRPHPGQLRATERLAQALDGAGRVCRTLTAARRLTAADLRPEDHPAQDAYSLRVVPQLVGAVWDTLDWHDRVVTCELNSVTDNPIFPEGCAVPALHGGNFMGVHVALASDALNAALVTLAGLVERQIARLTDEKLNKGLPAFLHGGQAGLQSGFMGAQVTATALLAEMRANATPVSVQSLSTNGANQDVVSMGTIAARRARAQLLPLSQIQAILALALAQAMDLLDDPEGQAGWSLTARDLRDRIRAVSPGLRADRPLAGDIEAVAQGLRHPSAADPPA"}, "B3": {"name": "SULT1A1 Homo sapiens, RmXAL: SULT1A1 from Homo sapiens co-expressed with tyrosine ammonia lyase RmXAL in E. coli (protein, UniProt P50225 1-295, looked up)", "Sulfotransferase 1A1": "MELIQDTSRPPLEYVKGVPLIKYFAEALGPLQSFQARPDDLLISTYPKSGTTWVSQILDMIYQGGDLEKCHRAPIFMRVPFLEFKAPGIPSGMETLKDTPAPRLLKTHLPLALLPQTLLDQKVKVVYVARNAKDVAVSYYHFYHMAKVHPEPGTWDSFLEKFMVGEVSYGSWYQHVQEWWELSRTHPVLYLFYEDMKENPKREIQKILEFVGRSLPEETVDFVVQHTSFKEMKKNPMTNYTTVPQEFMDHSISPFMRKGMAGDWKTTFTVAQNERFDADYAEKMAGCSLSFRSEL", "modifications": "co-expressed with RmXAL", "notes": "SULT1A1 from Homo sapiens co-expressed with tyrosine ammonia lyase RmXAL in E. coli"}, "B4": {"name": "RsTAL: tyrosine ammonia-lyase from Rhodobacter sphaeroides (protein)", "chain": "MLAMSPPKPAVELDRHIDLDEAHSVASGGARIVLAPPARDRCRASEARLGAVIREARHVYGLTTGFGPLANRLVSGENVRTLQANLVHHLASGVGPVLDWTTARAMVLARLVAIAQGASGASEGTIARLIDLLNSELAPAVPMRGTVGASGDLTPLAHMVLCLQGRGDFLDRDGTRLDGAEGLRRGRLQPLDLSHRDALALVNGTSAMTGIALVNAHACRHLGNWAVALTALLAECLGGRTEAWAAALSDLRPHPGQKDAAARLRARVDGSARVVRHVIAERRLGASDIGTEPEAGQDAYSLRCAPQVLGAGFDTLAWHDRVLTIELNAVTDNPVFPPDGSVPALHGGNFMGQHVALTSDALATAVTVLAGLAERQIARLTDERLNRGLPPFLHRGPAGLNSGFMGAQVTATALLAEMRATGPASIHSISTNAANQDVVSLGTIAARLCREKIDRWAEILAILALCLAQAAELRCGSGLDGVSPAGKKLVQALREQFPPLETDRPLGQEIAALATHLLQQSPV", "modifications": "Rhodobacter sphaeroides"}, "B5": {"name": "RmXAL: enzyme from Rhodotorula mucilaginosa/Rhodotorula rubra with tyrosine ammonia lyase activity (protein, listed as Rhodotorula mucilaginosa)", "chain": "MAPSVDSIATSVANSLSNGLHAAAAANGGDVHKKTAGAGSLLPTTETTQLDIVERILADAGATDQIKLDGYTLTLGDVVGAARRGRSVKVADSPHIREKIDASVEFLRTQLDNSVYGVTTGFGGSADTRTEDAISLQKALLEHQLCGVLPTSMDGFALGRGLENSLPLEVVRGAMTIRVNSLTRGHSAVRIVVLEALTNFLNHGITPIVPLRGTISASGDLSPLSYIAASITGHPDSKVHVDGKIMSAQEAIALKGLQPVVLGPKEGLGLVNGTAVSASMATLALTDAHVLSLLAQALTALTVEAMVGHAGSFHPFLHDVTRPHPTQIEVARNIRTLLEGSKYAVHHETEVKVKDDEGILRQDRYPLRCSPQWLGPLVSDMIHAHAVLSLEAGQSTTDNPLIDLENKMTHHGGAFMASSVGNTMEKTRLAVALMGKVSFTQLTEMLNAGMNRALPSCLAAEDPSLSYHCKGLDIAAAAYTSELGHLANPVSTHVQPAEMGNQAINSLALISARRTAEANDVLSLLLATHLYCVLQAVDLRAMEFEHTKAFEPMVTELLKQHFGALATAEVEDKVRKSIYKRLQQNNSYDLEQRWHDTFSVATGAVVEALAGQEVSLASLNAWKVACAEKAIALTRSVRDSFWAAPSSSSPALKYLSPRTRVLYSFVREEVGVKARRGDVYLGKQEVTIGTNVSRIYEAIKSGCIAPVLVKMMA"}}, "key": {"tyrosine [1]": {"tested_on": "tyrosine", "assay": "In vivo supply of p-coumaric acid by tyrosine ammonia-lyases co-expressed with SULT1A1 rat in E. coli", "assay_type": "cell-based, Escherichia coli", "conditions": "M9 0.2% glucose, 2 mM tyrosine, 1 mM IPTG, overnight 37° C., supernatant", "procedure": "(§1) The concentration of p-courmaric acid (pHCA) and zosteric acid in the supernatant was quantified by high performance (HPLC) and compared to chemical standards. HPLC was done on a Thermo setup using a HS-F5 column and mobile phases: 5 mM ammonium formate pH 4.0 (A) and acetonitrile (B) at 1.5 mL min-1, using a gradient elution starting at 5% B. From 0.5 min after injection to 7 min, the fraction of B increased linearly from 5% to 60%, and between 9.5 min and 9.6 the fraction of B decreased back to 5%, and remaining there until 12 min. pHCA and zosteric acid were quantified by measuring absorbance at 277 nm.\nThe genes encoding the tyrosine ammonia-lyases RcTAL (from Rhodobacter capsulatus; SEQ ID NO: 48), RsTAL (from Rhodobacter sphaeroides; SEQ ID NO: 17) and FjTAL (from Flavobacterium johnsoniae; SEQ ID NO: 14) were cloned into expression vectors as follows. Genes (SEQ ID NO: 49, 50, and 51, respectively) were optimized for E. coli and synthesized by GeneArt, amplified by PCR using the oligonucleotides shown in the table below, and cloned into pCDFDuet-1 (Novagen): The plasmid was digested with NdeI and BgIII and gel purified. The genes were inserted by isothermal assembly using Gibson Assembly Master Mix (New England Biolabs), and transformed into chemically competent DH5a (laboratory strain) or NEB5α (New England Biolabs), selecting for resistance to 50 μg mL^−1 spectinomycin in LB medium. Resulting plasmids pCBJ215 (RsTAL), pCBJ228 (FjTAL) and pCBJ297 (RcTAL) (FIGS. 6 to 8, respectively) were co-transformed by electroporation into the E. coli expression strain BL21(DE3) (Invitrogen/Life Technologies) together with a pETDuet-1-based plasmid expressing SULT1A1 from rat (Example 1). Transformation cultures were plated on LB containing 50 μg mL^−1 spectinomycin and 100 μg mL^−1 ampicillin. A control strain carrying pCDFDuet-1 was also made.\nStrains harboring recombinant plasmids were pre-cultured in 2×YT liquid medium with 100 μg mL^−1 ampicillin and 50 μg mL^−1 spectinomycin and incubated at 37° C. and 250 rpm overnight. The following day, each pre-culture was transferred into 5 ml of M9 minimal medium with 0.2% glucose, 2 mM tyrosine and 1 mM IPTG for induction of expression. Cultures were placed in an incubator at 37° C. with shaking at 250 rpm overnight. The supernatants were then collected by centrifugation twice and applied to HPLC analysis as described in example 1, and the titers of p-coumaric acid (pHCA) and zosteric acid (ZA) were quantified using chemical standards and are presented in the table below."}, "tyrosine [2]": {"tested_on": "tyrosine", "assay": "pHCA and zosteric acid in culture media of E. coli expressing an aryl sulfotransferase in combination with a tyrosine ammonia lyase", "assay_type": "cell-based, Escherichia coli", "conditions": "M9 glucose, 0.1 mM IPTG, no substrate added", "procedure": "as §1\nThe enzyme RmXAL from Rhodotorula mucilaginosa/Rhodotorula rubra (SEQ ID NO: 20) has tyrosine ammonia lyase activity, thus catalyzing the non-oxidative deamination of the amino acid tyrosine, releasing p-coumaric acid (pHCA) and ammonia. The gene encoding RmXAL was codon optimized using standard algorithms for expression in E. coli available by GeneArt (Life Technologies) and amplified by PCR using the primers shown in table 5 and inserted into the pCDFDuet-1 vector (Novagen/Life Technologies), which had been digested by the restriction enzymes NdeI and BgIII, using Gibson reaction (New England Biolabs). FIG. 4 provides an image of the plasmid expressing RmXAL.\nThe resulting plasmid was co-transformed into E. coli BL21(DE3)pLysS cells (Life Technologies) alone or together with the plasmid expressing SULT1A1 from Homo sapiens (example 1). The resulting strains was grown in M9 media with glucose as a carbon source, with 0.1 mM IPTG for induction of gene expression. Samples were taken as described previously (example 1) for analysis of product formation. […] RmXAL allowed the production of pHCA without addition of any substrate, thus providing a heterologous pathway from the cells normal metabolism to a heterologous product. The additional expression of an aryl sulfotransferase, exemplified by SULT1A1 from Homo sapiens, allowed the in vivo conversion of pHCA to zosteric acid. Thus, an aryl sulfotransferase can act upon a compound produced in vivo and the cells can release the resulting sulfated product to the medium."}}, "data": [{"molecule": "B1", "values": [{"measurement": "μM ZA", "setting": "tyrosine [1]", "value": 16, "unit": "µM"}, {"measurement": "μM pHCA", "setting": "tyrosine [1]", "value": 398, "unit": "μM"}]}, {"molecule": "B2", "values": [{"measurement": "μM ZA", "setting": "tyrosine [1]", "value": "<1", "unit": "µM"}, {"measurement": "μM pHCA", "setting": "tyrosine [1]", "value": 20, "unit": "μM"}]}, {"molecule": "B3", "values": [{"measurement": "Zosteric acid formed", "setting": "tyrosine [2]", "value": 0.01, "unit": "mM"}, {"measurement": "pHCA", "setting": "tyrosine [2]", "value": 0.02, "unit": "mM"}]}, {"molecule": "B4", "values": [{"measurement": "μM ZA", "setting": "tyrosine [1]", "value": "<1", "unit": "µM"}, {"measurement": "μM pHCA", "setting": "tyrosine [1]", "value": 78, "unit": "μM"}]}, {"molecule": "B5", "values": [{"measurement": "Zosteric acid formed", "setting": "tyrosine [2]", "value": "Not detectable"}, {"measurement": "pHCA", "setting": "tyrosine [2]", "value": 0.04, "unit": "mM"}]}]}
